Where two headings read alike, the source gives them in different places.
Key:
[1] = biological target: T1, recombinant cynomolgus IL-25 protein (cynomolgus monkey, UniProt Q9H293 33-177 (human entry), limits assumed); experiment: ELISA, IL-25 coated, goat anti-human kappa light chain-HRP detection
T1 construct: Bought (Sino Biological Inc, customized order); also called cyno IL-25
T1 chain: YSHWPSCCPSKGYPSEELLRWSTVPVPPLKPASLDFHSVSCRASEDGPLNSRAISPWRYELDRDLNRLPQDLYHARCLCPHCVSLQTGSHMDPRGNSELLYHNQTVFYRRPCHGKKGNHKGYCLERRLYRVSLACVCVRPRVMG
Experimental: (§1) In this study, the ability of three humanized anti-IL-25 antibodies generated in hIgG1 (IL25Ab6 to Ab8) and hIgG1 YTE formats (IL25Ab9 to Ab11) binding to both human, mouse and cynomolgus IL-25 was evaluated using ELISA. Briefly, recombinant human IL-25 protein (Acro, catalog no: IL5-H4221, lot no: 401-20CNF1-UT), recombinant mouse IL-25 protein (Sino Biological Inc, catalog no: 50138-M07H, lot no: LC15AP0607) or recombinant cynomolgus IL-25 protein (Sino Biological Inc, catalog no: customized order, lot no: MB17MA2715) was directly coated to ELISA plates, respectively. Recombinant antibodies were then added to the plates followed by detection using goat-anti-human Kappa Light Chain antibody HRP (Novus, catalog no: NBP1-75064, Lot no: 68-188-010920). After the addition of ABTS (Moss Inc., catalog no: ABTS-1000, Lot no: 03086202) substrate, ELISA plates were read using an ELISA plate reader (Bioteck).

[2] = biological target: T2, recombinant human IL-25 protein (human, UniProt Q9H293 33-177); experiment: as above
T2 construct: Bought (Acro, catalog no: IL5-H4221) for ELISA; also called hIL-25; IL-17E
T2 sequence: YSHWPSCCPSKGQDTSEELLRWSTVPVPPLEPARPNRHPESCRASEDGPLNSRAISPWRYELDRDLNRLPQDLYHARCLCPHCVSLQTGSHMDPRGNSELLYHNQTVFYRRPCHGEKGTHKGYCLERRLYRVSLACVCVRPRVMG
Experimental: as §1

[3] = biological target: T3, recombinant mouse IL-25 protein (mouse, UniProt Q8VHH8 17-169); experiment: as above
T3 construct: Bought (Sino Biological Inc, catalog no: 50138-M07H)
T3 sequence: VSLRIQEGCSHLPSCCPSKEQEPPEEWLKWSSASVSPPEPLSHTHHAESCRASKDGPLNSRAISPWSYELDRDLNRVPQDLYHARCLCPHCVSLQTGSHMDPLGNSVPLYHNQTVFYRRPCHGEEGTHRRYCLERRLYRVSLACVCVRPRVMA
Experimental: as §1

[4] = biological target: T2, recombinant human IL-25 protein; experiment: cell-based or functional assay
[5] = biological target: T2, recombinant human IL-25 protein; experiment: cell-based or functional assay; remark: listed apart in the source
[6] = biological target: T2, recombinant human IL-25 protein; experiment: cell-based or functional assay; remark: listed apart in the source
[7] = biological target: T2, recombinant human IL-25 protein; experiment: ELISA, IL-25 coated, goat anti-human IgG-HRP detection
Experimental: (§2) In this study, the ability of five disclosed anti-IL-25 antibodies (IL25Ab1 to Ab5) binding to both human and mouse IL-25 was evaluated using ELISA. Briefly, recombinant human IL-25 protein (Acro, catalog no: IL5-H4221, lot no: 401-20CNF1-UT) or recombinant mouse IL-25 protein (Sino Biological Inc, catalog no: 50138-M07H, lot no: LC15AP0607) was directly coated to ELISA plates, respectively. Recombinant antibodies were then added to the plates followed by detection using goat-anti-human IgG-HRP (Jackson ImmunoResearch, catalog no: 109-035-098, Lot no: 157400). After the addition of ABTS (Moss Inc., catalog no: ABTS-1000, Lot no: 03086202) substrate, ELISA plates were read using an ELISA plate reader (Bioteck).

[8] = biological target: T3, recombinant mouse IL-25 protein; experiment: as above
Experimental: as §2

[9] = biological target: T2, recombinant human IL-25 protein; experiment: BLI (Octet), antibody captured on anti-human Fc biosensor, human IL-25 as analyte
Experimental: The binding kinetics of the disclosed anti-IL-25 antibodies to recombinant human IL-25 was determined by Octet® Bio-Layer Interferometry (BLI) systems by Sartorius. The assay uses anti-IL-25 monoclonal antibodies as the ligand and recombinant human IL-25 protein as the analyte.
Briefly, the assays were performed by first capturing 5 μg/ml of anti-IL-25 antibodies using anti-human Fc Octet biosensors. The mAb-captured biosensors were then submerged in wells containing serially diluted human IL-25 for 4-6 minutes, followed by a 10-15 minute dissociation time. The binding sensorgrams were collected and analyzed by the Octet Data Analysis software.

[10] = biological target: T2, recombinant human IL-25 protein; experiment: cell-based or functional assay; remark: listed apart in the source
[11] = biological target: T1, recombinant cynomolgus IL-25 protein; experiment: ELISA: recombinant cynomolgus IL-25 coated on the plate, detection with goat-anti-human Kappa Light Chain antibody HRP, ABTS, OD 405
Experimental: as §1, with “another” for “this”, “five disclosed” for “three humanized”, “(IL25Ab1” for “generated in hIgG1 (IL25Ab6”, “Ab5)” for “Ab8) and hIgG1 YTE formats (IL25Ab9 to Ab11)”, “to” for “to both human, mouse and”, “401-20CNF1-UT)” for “401-20CNF1-UT), recombinant mouse IL-25 protein (Sino Biological Inc, catalog no: 50138-M07H, lot no: LC15AP0607)”

[12] = biological target: T2, recombinant human IL-25 protein; experiment: cell-based or functional assay; remark: listed apart in the source
[13] = biological target: T2, recombinant human IL-25 protein; experiment: cell-based or functional assay; remark: listed apart in the source

B1: IL25Ab3 (antibody, V domains shown)
VH: EVQLQQSGPELVKPGGSVRISCKASGYSFTGYTMNWVKQSHGKNLEWIGLINPDNGGTSHKQRFMGKATLTVDKSSSTAYMELLSLTSEDSAVYYCAREGYYGPSPFHHYAMDYWGQGTSVTVSS
VL: DIQMTQTTSSLSASLGDRVTISCSASQDISNYLNWYQQKPDGTIKLLIYYTSTLHSGVPSRFSGSGSGTDYSLTISNLEPEDIATYYCQQYSKLPYTFGGGTKLEIK
notes: detected with anti-human IgG or anti-human kappa reagents; also called anti-IL-25Ab3; mouse origin of anti-IL-25 specific antibody
[1]
  EC50: 0.364 nM
[2]
  EC50: 0.506 nM
[3]
  EC50: 0.39 nM
[4]
  IC50, IL-25 induced IL-5 production in human PBMC: 0.302 nM
[5]
  IC50, IL-25 induced NF-kB signaling (SEAP) in HEK-Blue IL-17 reporter cells: 0.037 nM
[6]
  IC50, IL-25 induced CXCL1 production in HT-29 cells: 0.067 nM
[7]
  EC50: 0.022 nM
[8]
  EC50: 0.013 nM
[9]
  Kd: < 0.001 nM
  koff: < 1e-07 s⁻¹
  kon: 875000 M⁻¹ s⁻¹
[10]
  IC50, IL-25 induced IL-5 production in human PBMC: 0.16 nM
[11]
  EC50 (read off the curve): ~0.1 nM
[12]
  IC50, IL-25 induced NF-kB signaling (SEAP) in HEK-Blue IL-17 reporter cells: 0.049 nM
[13]
  IC50, IL-25 induced CXCL1 production in HT-29 cells: 0.144 nM

B2: IL25Ab4 (antibody, V domains shown)
VH: QVTLKESGPGILQPSQTLSLTCSFSGFSLSTSGMGVSWIRQPSGKGLEWLAHIYWDDAKFYNPSLKSRVTISKDTSRNQVFLRITSVDTADIATYYCARRGYDNYGGFVDWGQGTLVTVSS
VL: ENVLIQSPAIMSASLGEKVTMSCRASSSVNYMYWYQQKSDAPPKLWIYYTSNLAPGVPGRFSGSGSGNSYSLTISSMEGEDAATYYCQQFTSYPYMYTFGGGTKLEIK
[6]
  IC50, IL-25 induced CXCL1 production in HT-29 cells: 0.076 nM
[7]
  EC50: 0.034 nM
[8]
  EC50: 0.026 nM
[9]
  Kd: < 0.001 nM
  koff: < 1e-07 s⁻¹
  kon: 1.2e+06 M⁻¹ s⁻¹
[10]
  IC50, IL-25 induced IL-5 production in human PBMC: 0.15 nM
[11]
  EC50 (read off the curve): ~0.1 nM
[12]
  IC50, IL-25 induced NF-kB signaling (SEAP) in HEK-Blue IL-17 reporter cells: 0.073 nM

B3: IL25Ab5 (antibody, V domains shown)
VH: QVQLQQWGAGLLKPSETLSLTCAVYGGSFSAYYWSWIRQSPGKGLEWIGEINHGGNTNYSPSLKSRVTISVDTSKSQFSLKLSSVTAADTAAYYCARGPGITSWAFDFWDQGTMVTVSS
VL: DIQMTQSPSSLSASVGDRVTIACQASQDINNYLNWYQQKPGKAPKLLIYDASNLETGVPSRFSGNGSGTDFTFTISSLQPEDIATFYCQQYDTLPYTFGQGTKLEIR
[6]
  IC50, IL-25 induced CXCL1 production in HT-29 cells: 0.077 nM
[7]
  EC50: 0.01 nM
[8]
  EC50: 0.035 nM
[9]
  Kd: < 0.001 nM
  koff: < 1e-07 s⁻¹
  kon: 2.48e+06 M⁻¹ s⁻¹
[10]
  IC50, IL-25 induced IL-5 production in human PBMC: 0.26 nM
[11]
  EC50 (read off the curve): ~0.2 nM
[12]
  IC50, IL-25 induced NF-kB signaling (SEAP) in HEK-Blue IL-17 reporter cells: 0.061 nM

B4: IL25Ab1 (antibody, V domains shown)
VH: QVQLKESGPGLVAPSQSLSITCTVSGFSLTDYGINWVRQPPGKGLEWLGMIWGDGVTHYNSVLKSRLSISKDNSMSQIFLKMNSLQTDDTARYYCARTLFYDGTLYYYAMDYWGQGTSVTVSS
VL: QIVLTQSPATMSASPGEKVTMTCSASSSVTYMYWYQQKTGSSPRLLIYDTPNLASGVPVRFSGSGSGTSYSLTISRVEAEDAATYYCQQWSSYPHTWTFGGGTKLEIK
[6]
  IC50, IL-25 induced CXCL1 production in HT-29 cells: 0.071 nM
[7]
  EC50: 0.02 nM
[8]
  EC50: 0.015 nM
[9]
  Kd: < 0.001 nM
  koff: < 1e-07 s⁻¹
  kon: 1.25e+06 M⁻¹ s⁻¹
[10]
  IC50, IL-25 induced IL-5 production in human PBMC: 0.12 nM
[11]
  EC50 (read off the curve): ~0.1 nM
[12]
  IC50, IL-25 induced NF-kB signaling (SEAP) in HEK-Blue IL-17 reporter cells: 0.052 nM

B5: IL25Ab2 (antibody, V domains shown)
VH: QVTLKESGPGILQPSQTLSLTCSFSGFSLSTSGMGVGWIRQPSGKGLEWLAHIWWDDVKQYNPALQSRLTISKDTSSSQVFLKIASVDIADIATYYCARIGPVHHGFPYWGQGALVTVSS
VL: QIVLTQSPAIMSAFPGEKVTMSCSASSSVNYMYWHQQKPGSSPRLLIYDTSNLASGVPVRFSGSGSGTSYSLTISRMEAEDAATYYCQQWTSYPPMYTFGGGTKLEIK
[6]
  IC50, IL-25 induced CXCL1 production in HT-29 cells: 0.089 nM
[7]
  EC50: 0.017 nM
[8]
  EC50: 0.012 nM
[9]
  Kd: < 0.001 nM
  koff: < 1e-07 s⁻¹
  kon: 1.36e+06 M⁻¹ s⁻¹
[10]
  IC50, IL-25 induced IL-5 production in human PBMC: 0.14 nM
[11]
  EC50 (read off the curve): ~0.1 nM
[12]
  IC50, IL-25 induced NF-kB signaling (SEAP) in HEK-Blue IL-17 reporter cells: 0.068 nM

From US20260242458A1 (NOVAROCK BIOTHERAPEUTICS, published 2026)
